The record followed here is publication PMC4482071.

What is called stoichiometry N is a count of units in the complex or per binding partner.

The target of this assay is Aspergillus nidulans (An) Rpf2 (Aspergillus nidulans). The experiment in a line: SEC; size exclusion chromatography of the An Rpf2-Rrs1 complex in solution; conditions not given (preparation in ref. 22).

With “Aspergillus nidulans (An) Rrs1 (natural protein)”, the stoichiometry N was 1.
